According to US20260242735A1 (UNIVERSIT T BASEL, published 2026):

How the values were obtained:
Test in all cases: flow cytometry, alanine scan
[1] = biological target: human CD33 G318A (human, UniProt P20138 18-364)
Method: (§1) An alanine scan on human CD33 was performed to the determine the residues on CD33 that are involved in binding to the antibodies investigated. […] Briefly, a mutation library of CD33 was created by high-throughput, site-directed mutagenesis. Each residue was individually mutated to alanine, with alanine codons mutated to serine. The mutant library was arrayed in 384-well microplates and transiently transfected into HEK293-T. Following transfection, cells were incubated with the indicated antibodies (IgG or Fab) at concentrations pre-determined using an independent immunofluorescence titration curve on wild type CD33. […] Binding of each antibody to each mutant clone was determined in duplicates. For each point, background fluorescence was subtracted from the raw data, which were then normalized to antibody reactivity with wild type CD33.
(§2) Critical residues for antibody binding (outlined in dark grey) were residues whose mutations led to a binding of the test Abs of less than 20%. Additional secondary residues (outlined in light grey) were identified that led to a binding of the test Abs of between 20 and 40% as compared to the wild type CD33.

[2] = biological target: human CD33 P319A (human, UniProt P20138 18-364)
Method: as §1, §2

[3] = biological target: human CD33 T320A (human, UniProt P20138 18-364)
Method: as §1, §2

[4] = biological target: human CD33 E321A (human, UniProt P20138 18-364)
Method: as §1, §2

[5] = biological target: human CD33 T322A (human, UniProt P20138 18-364)
Method: as §1, §2

[6] = biological target: human CD33 S323A (human, UniProt P20138 18-364)
Method: as §1, §2

[7] = biological target: human CD33 S324A (human, UniProt P20138 18-364)
Method: as §1, §2

[8] = biological target: human CD33 C325A (human, UniProt P20138 18-364)
Method: as §1, §2

[9] = biological target: human CD33 S326A (human, UniProt P20138 18-364)
Method: as §1, §2

[10] = biological target: human CD33 G327A (human, UniProt P20138 18-364)
Method: as §1, §2

[11] = biological target: human CD33 A328S (human, UniProt P20138 18-364)
Method: as §1, §2

[12] = biological target: human CD33 A329S (human, UniProt P20138 18-364)
Method: as §1, §2

[13] = biological target: human CD33 P330A (human, UniProt P20138 18-364)
Method: as §1, §2

[14] = biological target: human CD33 T331A (human, UniProt P20138 18-364)
Method: as §1, §2

[15] = biological target: human CD33 V332A (human, UniProt P20138 18-364)
Method: as §1, §2

[16] = biological target: human CD33 E333A (human, UniProt P20138 18-364)
Method: as §1, §2

[17] = biological target: human CD33 M334A (human, UniProt P20138 18-364)
Method: as §1, §2

[18] = biological target: human CD33 D335A (human, UniProt P20138 18-364)
Method: as §1, §2

[19] = biological target: human CD33 E336A (human, UniProt P20138 18-364)
Method: as §1, §2

[20] = biological target: human CD33 E337A (human, UniProt P20138 18-364)
Method: as §1, §2

[21] = biological target: human CD33 L338A (human, UniProt P20138 18-364)
Method: as §1, §2

[22] = biological target: human CD33 H339A (human, UniProt P20138 18-364)
Method: as §1, §2

[23] = biological target: human CD33 Y340A (human, UniProt P20138 18-364)
Method: as §1, §2

[24] = biological target: human CD33 A341S (human, UniProt P20138 18-364)
Method: as §1, §2

[25] = biological target: human CD33 S342A (human, UniProt P20138 18-364)
Method: as §1, §2

[26] = biological target: human CD33 L343A (human, UniProt P20138 18-364)
Method: as §1, §2

[27] = biological target: human CD33 N344A (human, UniProt P20138 18-364)
Method: as §1, §2

[28] = biological target: human CD33 F345A (human, UniProt P20138 18-364)
Method: as §1, §2

[29] = biological target: human CD33 H346A (human, UniProt P20138 18-364)
Method: as §1, §2

[30] = biological target: human CD33 G347A (human, UniProt P20138 18-364)
Method: as §1, §2

[31] = biological target: human CD33 M348A (human, UniProt P20138 18-364)
Method: as §1, §2

[32] = biological target: human CD33 N349A (human, UniProt P20138 18-364)
Method: as §1, §2

[33] = biological target: human CD33 P350A (human, UniProt P20138 18-364)
Method: as §1, §2

[34] = biological target: human CD33 S351A (human, UniProt P20138 18-364)
Method: as §1, §2

[35] = biological target: human CD33 K352A (human, UniProt P20138 18-364)
Method: as §1, §2

[36] = biological target: human CD33 D353A (human, UniProt P20138 18-364)
Method: as §1, §2

[37] = biological target: human CD33 T354A (human, UniProt P20138 18-364)
Method: as §1, §2

[38] = biological target: human CD33 S355A (human, UniProt P20138 18-364)
Method: as §1, §2

[39] = biological target: human CD33 T356A (human, UniProt P20138 18-364)
Method: as §1, §2

[40] = biological target: human CD33 E357A (human, UniProt P20138 18-364)
Method: as §1, §2

[41] = biological target: human CD33 Y358A (human, UniProt P20138 18-364)
Method: as §1, §2

[42] = biological target: human CD33 S359A (human, UniProt P20138 18-364)
Method: as §1, §2

[43] = biological target: human CD33 E360A (human, UniProt P20138 18-364)
Method: as §1, §2

[44] = biological target: human CD33 V361A (human, UniProt P20138 18-364)
Method: as §1, §2

[45] = biological target: human CD33 R362A (human, UniProt P20138 18-364)
Method: as §1, §2

[46] = biological target: human CD33 T363A (human, UniProt P20138 18-364)
Method: as §1, §2

[47] = biological target: human CD33 Q364A (human, UniProt P20138 18-363)
Method: as §1, §2

Chain of human CD33 M334A (P20138 18-364 M334A limits assumed): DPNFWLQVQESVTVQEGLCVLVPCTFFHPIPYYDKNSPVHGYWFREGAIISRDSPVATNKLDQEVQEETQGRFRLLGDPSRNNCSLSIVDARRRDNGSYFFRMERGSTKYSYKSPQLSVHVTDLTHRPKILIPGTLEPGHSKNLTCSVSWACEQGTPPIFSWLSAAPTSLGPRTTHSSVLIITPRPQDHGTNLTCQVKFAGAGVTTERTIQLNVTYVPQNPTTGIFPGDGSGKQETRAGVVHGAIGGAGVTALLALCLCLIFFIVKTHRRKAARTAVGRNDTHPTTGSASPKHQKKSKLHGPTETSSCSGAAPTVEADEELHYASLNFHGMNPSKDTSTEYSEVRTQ
Chain of human CD33 R362A (P20138 18-364 R362A limits assumed): as the sequence (P20138 18-364 M334A limits assumed) above, with A317M, R345A counted along it
Chain of human CD33 P350A (P20138 18-364 P350A limits assumed): as the sequence (P20138 18-364 M334A limits assumed) above, with A317M, P333A counted along it
Chain of human CD33 P319A (P20138 18-364 P319A limits assumed): as the sequence (P20138 18-364 M334A limits assumed) above, with P302A, A317M counted along it
Chain of human CD33 F345A (P20138 18-364 F345A limits assumed): as the sequence (P20138 18-364 M334A limits assumed) above, with A317M, F328A counted along it
Chain of human CD33 N344A (P20138 18-364 N344A limits assumed): as the sequence (P20138 18-364 M334A limits assumed) above, with A317M, N327A counted along it
Chain of human CD33 D353A (P20138 18-364 D353A limits assumed): as the sequence (P20138 18-364 M334A limits assumed) above, with A317M, D336A counted along it
Chain of human CD33 A329S (P20138 18-364 A329S limits assumed): as the sequence (P20138 18-364 M334A limits assumed) above, with A312S, A317M counted along it
Chain of human CD33 Y358A (P20138 18-364 Y358A limits assumed): as the sequence (P20138 18-364 M334A limits assumed) above, with A317M, Y341A counted along it
Chain of human CD33 T356A (P20138 18-364 T356A limits assumed): as the sequence (P20138 18-364 M334A limits assumed) above, with A317M, T339A counted along it
Chain of human CD33 S359A (P20138 18-364 S359A limits assumed): as the sequence (P20138 18-364 M334A limits assumed) above, with A317M, S342A counted along it
Chain of human CD33 G347A (P20138 18-364 G347A limits assumed): as the sequence (P20138 18-364 M334A limits assumed) above, with A317M, G330A counted along it
Chain of human CD33 V361A (P20138 18-364 V361A limits assumed): as the sequence (P20138 18-364 M334A limits assumed) above, with A317M, V344A counted along it
Chain of human CD33 S355A (P20138 18-364 S355A limits assumed): as the sequence (P20138 18-364 M334A limits assumed) above, with A317M, S338A counted along it

B1: Refmab #2 (antibody, V domains shown)
VH: QVQLVQSGAEVKKPGSSVKVSCKASGGTFSDYAISWVRQAPGQGLEWMGRIIPILGVADYAQKFQGRVTITADKSTRTAYMELSSLRSEDTAVYYCARNWADAFDIWGQGTMVTVSS
VL: DIQLTQSPSSLSASVGDRVTITCRASQGISSVLAWYQQKPGKAPKLLIYDASSLESGVPSRFSGSGSGTDFTLTISSLQPEDFATYYCQQFDSSITFGQGTKLEIK
notes: The alanine scan used IgG or Fab
In the case of B1, the “Mean % WT Binding” value [1] is reported as 106 % of WT, the “Mean % WT Binding” value [2] is reported as 100 % of WT and the “Mean % WT Binding” value [3] is reported as 112 % of WT. The “Mean % WT Binding” value [4] was 117 % of WT, the “Mean % WT Binding” value [5] was 111 % of WT and the “Mean % WT Binding” value [6] was 119 % of WT. For the same binder, the “Mean % WT Binding” value [7] was 106 % of WT, the “Mean % WT Binding” value [8] was 109 % of WT and the “Mean % WT Binding” value [9] was 109 % of WT. For the same binder, the “Mean % WT Binding” value [10] was 122 % of WT, the “Mean % WT Binding” value [11] was 102 % of WT and the “Mean % WT Binding” value [12] was 116 % of WT. For the same binder, the “Mean % WT Binding” value [13] was 119 % of WT, the “Mean % WT Binding” value [14] was 91.3 % of WT and the “Mean % WT Binding” value [15] was 91.6 % of WT. For the same binder, the “Mean % WT Binding” value [16] was 108 % of WT, the “Mean % WT Binding” value [17] was 106 % of WT and the “Mean % WT Binding” value [18] was 117 % of WT. For the same binder, the “Mean % WT Binding” value [19] was 117 % of WT, the “Mean % WT Binding” value [20] was 116 % of WT and the “Mean % WT Binding” value [21] was 107 % of WT. For the same binder, the “Mean % WT Binding” value [22] was 99.5 % of WT, the “Mean % WT Binding” value [23] was 106 % of WT and the “Mean % WT Binding” value [24] was 116 % of WT. For the same binder, the “Mean % WT Binding” value [25] was 117 % of WT, the “Mean % WT Binding” value [26] was 111 % of WT and the “Mean % WT Binding” value [27] was 88.1 % of WT. For the same binder, the “Mean % WT Binding” value [28] was 102 % of WT, the “Mean % WT Binding” value [29] was 118 % of WT and the “Mean % WT Binding” value [30] was 85.9 % of WT. The “Mean % WT Binding” value [31] was 115 % of WT, the “Mean % WT Binding” value [32] was 110 % of WT and the “Mean % WT Binding” value [33] was 117 % of WT. For the same binder, the “Mean % WT Binding” value [34] was 109 % of WT, the “Mean % WT Binding” value [35] was 113 % of WT and the “Mean % WT Binding” value [36] was 94.4 % of WT. The “Mean % WT Binding” value [37] was 111 % of WT, the “Mean % WT Binding” value [38] was 105 % of WT and the “Mean % WT Binding” value [39] was 111 % of WT. For the same binder, the “Mean % WT Binding” value [40] was 104 % of WT, the “Mean % WT Binding” value [41] was 110 % of WT and the “Mean % WT Binding” value [42] was 102 % of WT. For the same binder, the “Mean % WT Binding” value [43] was 101 % of WT, the “Mean % WT Binding” value [44] was 99.4 % of WT and the “Mean % WT Binding” value [45] was 119 % of WT. For the same binder, the “Mean % WT Binding” value [46] was 108 % of WT and the “Mean % WT Binding” value [47] was 109 % of WT.
